Data as given in US20040161746A1 (published 2004).
Values belong to the binder of their own block, whether it stands above or below them.

Molecular target: T1, B1153 protein (human, UniProt Q96JG6 1-964)
T1 construct: also called indicator protein
T1 sequence: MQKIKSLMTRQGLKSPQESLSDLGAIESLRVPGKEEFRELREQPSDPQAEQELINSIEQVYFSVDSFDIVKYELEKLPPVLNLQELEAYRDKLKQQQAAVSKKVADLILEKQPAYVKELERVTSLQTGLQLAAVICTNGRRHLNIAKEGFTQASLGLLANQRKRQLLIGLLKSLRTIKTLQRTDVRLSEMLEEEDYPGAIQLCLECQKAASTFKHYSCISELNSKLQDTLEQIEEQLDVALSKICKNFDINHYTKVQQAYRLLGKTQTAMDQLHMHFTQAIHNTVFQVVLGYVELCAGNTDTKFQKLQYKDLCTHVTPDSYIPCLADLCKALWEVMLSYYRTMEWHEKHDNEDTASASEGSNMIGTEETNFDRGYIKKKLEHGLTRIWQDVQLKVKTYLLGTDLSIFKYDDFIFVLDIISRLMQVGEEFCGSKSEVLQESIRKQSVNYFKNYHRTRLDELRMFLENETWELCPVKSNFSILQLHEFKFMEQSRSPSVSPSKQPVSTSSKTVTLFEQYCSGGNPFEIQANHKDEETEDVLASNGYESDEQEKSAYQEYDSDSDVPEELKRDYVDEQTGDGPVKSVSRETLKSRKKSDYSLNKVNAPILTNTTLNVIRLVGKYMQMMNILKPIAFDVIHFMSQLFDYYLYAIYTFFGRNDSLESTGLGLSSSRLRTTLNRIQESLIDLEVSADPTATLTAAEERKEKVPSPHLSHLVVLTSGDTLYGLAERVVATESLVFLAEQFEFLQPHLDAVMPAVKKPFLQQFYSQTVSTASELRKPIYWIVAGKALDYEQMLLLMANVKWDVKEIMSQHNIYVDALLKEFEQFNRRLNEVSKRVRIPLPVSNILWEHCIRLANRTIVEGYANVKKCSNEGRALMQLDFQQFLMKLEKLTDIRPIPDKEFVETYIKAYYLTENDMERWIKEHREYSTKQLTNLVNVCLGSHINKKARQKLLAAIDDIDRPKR
Assay: yeast two-hybrid (PROQUEST, GAL4), B1153 full-length ORF as bait, Human Brain cDNA library prey
Procedure: By the PROQUEST™ TWO-Hybrid system (Invitrogen) utilizing the in vivo gene expression system of GAL4 series yeast, a search for a protein that interacts with the protein of this invention was carried out. Screening for a protein that interacts with B1153 was conducted for the Human Brain cDNA library with the full-length ORF region (86 bp to 2977 bp) of the B1153 gene as a bait. In this case, protocol according to the manual attached to the system was used.

binding result: binds
B1: myosin binding subunit 85 partial sequence, Prey-No. 3 (590 aa to 782 aa) (other, human, UniProt Q9BZL4 590-782, looked up)
chain: PSRRPRVPGVENSDSPAQRAEAPDGQGPGPQAAREHRKVGKEWRGPAEGEEAEPADRSQESSTLEGGPSARRQRWQRDLNPEPEPESEEPDGGFRTLYAELRRENERLREALTETTLRLAQLKVELERATQRQERFAERPALLELERFERRALERKAAELEEELKALSDLRADNQRLKDENAALIRVISKLSK
notes: range 590-782; Prey clone from a Human Brain cDNA library in the yeast two-hybrid system

binding result: binds
B2: myosin binding subunit 85 partial sequence, Prey-No. 4 (590 aa to 782 aa) (other, human, UniProt Q9BZL4 590-782, looked up)
chain: B1 chain
notes: range 590-782; Prey clone from a Human Brain cDNA library; It has the same amino acid range as Prey-No. 3 and differs only in 3'-UTR length; The prey fusion domain is not described

binding result: binds
B3: myosin binding subunit 85 partial sequence, Prey-No. 11 (656 aa to 782 aa) (other, human, UniProt Q9BZL4 656-782, looked up)
chain: GPSARRQRWQRDLNPEPEPESEEPDGGFRTLYAELRRENERLREALTETTLRLAQLKVELERATQRQERFAERPALLELERFERRALERKAAELEEELKALSDLRADNQRLKDENAALIRVISKLSK
notes: range 656-782; Prey clone from a Human Brain cDNA library; The prey fusion domain is not described
